According to the supplement of paper PMC10567573:
± gives the standard deviation.

Assay: protein stability index of a GFP-peptide fusion (GPS, HEK-293T) (PSI 1-6); higher = more stable
[1] = treatment: DMSO, c terminus: a fixed tail appended
[2] = treatment: MLN4924 1 uM, 8 h, c terminus: a fixed tail appended
[3] = treatment: DMSO, c terminus: native
[4] = treatment: MLN4924 1 uM, 8 h, c terminus: native
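Also: 24-mer peptide tiles fused after GFP, lentivirally expressed, FACS-sorted into six equal bins by GFP/DsRed ratio, decoded by Illumina sequencing, PSI is the read-weighted mean bin number.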

Sequence | protein stability index [1] | protein stability index [2] | protein stability index [3] | protein stability index [4]
MITVPIGLYFTTKSYIFEGALGMS [VMA21] | 2.49 ± 0.7 | 2.89 ± 0.43 | – | –
RREVAKTVFCLVVIFALCWFPLHL [EDNRA] | 2.93 ± 0.19 | 2.53 ± 0.27 | – | –
LSEGSSNEDEDLGPCEGPSKEDKD [SPANXN3] | 5.71 ± 0.31 | 5.37 ± 0.41 | – | –
KTMPKSVVGLHAASKDPREVREAR [EHMT1] | 4.78 ± 0.09 | 4.86 ± 0.26 | – | –
ATGDTALTYACENGHTDVADVLLQ [ANKRD17] | 4.41 ± 0.21 | 4.56 ± 0.08 | – | –
LCLNTEDSFVCQCSEGFLINEDLK [MATN2] | 3.03 ± 0.28 | 3.38 ± 0.28 | – | –
SESSPSDFSVSLKASGKNKHFKVQ [NCK2] | 4.39 ± 0.18 | 4.33 ± 0.17 | – | –
CRGKKPSRIYGQAMAIINGSLYVF [KLHDC10] | 3.22 ± 0.66 | 2.51 ± 0.73 | – | –
PASAPGEPRQRRLLLLDLLALYTP [ANKRD9] | 2.25 ± 0.071 | 2.02 ± 0.48 | – | –
CVSHLIIVTVHYGCASFIYLRPQS [OR10K2] | 2.99 ± 0.35 | 3.04 ± 0.46 | – | –
ALQNYNNELVKCIEELCQKREELC [SSNA1] | 2.94 ± 0.18 | 2.94 ± 0.33 | – | –
ASSVHLKSESSLPHQTSKMENLPG | 4.8 ± 0.26 | 4.85 ± 0.49 | – | –
AYISLVEEEDQHMKLSLGGSEMGL [KLHL13] | 2.98 ± 0.38 | 3.06 ± 0.52 | – | –
KPPPNSEGEQGPNGSQNSSYSQS [CCNC] | – | – | 5.36 ± 0.24 | 5.41 ± 0.27
FQHHAKPNCFRKDPDINMHPFFFA [FADS1] | 2.2 ± 0.43 | 2.29 ± 0.19 | – | –
ASDGSDFTFLRPLSVQQPTALALE [PCDHGC5] | 3.82 ± 0.17 | 3.82 ± 0.32 | – | –
PELTPEEEQATKQFLEEINKWTVQ [PTPN9] | 5.01 ± 0.23 | 4.86 ± 0.12 | – | –
NAININELFIEISRRIPSTDANLP [RAB22A] | 2.35 ± 0.18 | 2.18 ± 0.45 | – | –
EHQNKRSPLHAAAEAGHVDICHML [EHMT1] | 3.98 ± 0.27 | 3.94 ± 0.12 | – | –
NRGNSAGGLQHRVTAKTAPDVLRT [PTPRD] | 3.98 ± 0.47 | 3.81 ± 0.31 | – | –
LLLGSPHPAATALHAELCQAGSSQ [LPCAT4] | 3.01 ± 0.42 | 3.18 ± 0.21 | – | –
ALKERADSLAKEIQYLKDLIEEVR [ATF4] | 4.49 ± 0.36 | 4.59 ± 0.057 | – | –
PTLAKFSPYLGQMINLRRLLLSHI [PRAME] | 2.33 ± 0.42 | 2.15 ± 0.11 | – | –

Sequence | protein stability index [1] | protein stability index [2] | protein stability index [3] | protein stability index [4]
FKEQLQALIPYVLNPSKLMEKEIN [ATL3] | 1.91 ± 0.28 | 2.22 ± 0.24 | – | –
PCGPNMSEVSCKKRDDYLEWPEYF [DCTD] | 3.56 ± 0.23 | 3.6 ± 0.26 | – | –
PRSHFTTPAPMSSAWKTVACGGTR [MYBL2] | 2.77 ± 0.32 | 2.84 ± 0.17 | – | –
STARRSRAASSQRAEEEDDDIKQL [CHMP4C] | 5.59 ± 0.073 | 5.46 ± 0.25 | – | –
GLIPTGSGRHPSHSTTPSGPGDEV [ARFIP2] | 5.08 ± 0.17 | 5.04 ± 0.1 | – | –
GFSSIPDAFWWAVVTMTTVGYGDM [KCNA3] | 3.06 ± 0.47 | 3.25 ± 0.27 | – | –
IRERILGPSHPDTSYYIRYRGAVY [FEM1C] | 2.22 ± 0.27 | 2.1 ± 0.34 | – | –
SPSNVQKWLLWTEHQYRLPPMGKA [SPDEF] | 2.42 ± 0.2 | 2.61 ± 0.19 | – | –
LSIYVGCDKYPHESQLPEEWENNR [CPXM2] | 2.98 ± 0.13 | 3.25 ± 0.4 | – | –
QVDSLRPASFPTWGCDLGVVTRVV [BRF1] | 2.66 ± 0.11 | 2.5 ± 0.18 | – | –
EILHQQNIHQLQNRLSELEVANKD [SASS6] | 3.99 ± 0.19 | 4.13 ± 0.34 | – | –
RDSLSHLVPALRLPGRKLVSSAVS [INTS4] | 3.04 ± 0.12 | 3.21 ± 0.24 | – | –
TSTVNSAREELMESRMRIESLSSQ [LMNB1] | 4.54 ± 0.15 | 4.51 ± 0.18 | – | –
EKEKKNRKGKDKENGSVSSSETPP [EIF5] | 5.58 ± 0.24 | 5.65 ± 0.13 | – | –
SGGELFDFLAEKESLTEDEATQFL [DAPK3] | 4.84 ± 0.19 | 4.96 ± 0.47 | – | –
FDRTEWVQIRRLEAAGESLEEEIR [ZC2HC1C] | 4.02 ± 0.08 | 4.55 ± 0.1 | – | –
DIVDRGSTNLGVNQAGFTLHSAIY [ADD1] | 2.36 ± 0.16 | 2.49 ± 0.45 | – | –
LLCLFFGIPWEAGARQISYSIPEE [PCDHGA10] | 1.94 ± 0.035 | 2.45 ± 0.41 | – | –
SIGIDNLGLKLEENLQETHSAVL [SLC35F2] | – | – | 4.34 ± 0.31 | 4.53 ± 0.19
TKVQKKSLLLKKPLRVDLILENTS [NOP53] | 2.71 ± 0.19 | 2.84 ± 0.39 | – | –
MHLNAEGMLSYCDRYSEGIKHVLQ [CRYL1] | 2.4 ± 0.29 | 2.32 ± 0.42 | – | –
CPASNECEITKRRRKACQACRFTK [ESRRA] | 3.94 ± 0.33 | 4.26 ± 0.23 | – | –
TSHSLPESSVPSTVGCSSQHTPDQ [PLEKHN1] | 5.36 ± 0.17 | 5.28 ± 0.16 | – | –

Sequence | protein stability index [1] | protein stability index [2] | protein stability index [3] | protein stability index [4]
HMNVEALPEWISCLIQKAQWTVGK [RNF180] | 2.32 ± 0.51 | 2.19 ± 0.34 | – | –
PDFNPEKHGSLNRYHNSHPLRERA [YJU2B] | 4.36 ± 0.21 | 4.37 ± 0.29 | – | –
VLDILTRLPESVERLTGVSISQVN [FLOT1] | 2.43 ± 0.23 | 2.3 ± 0.48 | – | –
GVAVGDWVLSIDGENAGSLTHIEA [PDLIM7] | 3.03 ± 0.5 | 2.96 ± 0.36 | – | –
IGSKNGGKTTIILRCLDRDEPSKP [DYNC2LI1] | 2.54 ± 0.7 | 3.16 ± 0.32 | – | –
ERPLPNPEGLDSDFLAVLSDYPSP [SLA] | 4.26 ± 0.39 | 4.58 ± 0.41 | – | –
EHKGWYSWVLSMLYGFLLTFGFIT [CLPTM1] | 2.4 ± 0.56 | 2.62 ± 0.37 | – | –
GMLSYCDRYSEGIKHVLQTFGPIP [CRYL1] | 2.72 ± 0.5 | 2.196 ± 0.02 | – | –
KQQLVDAFLKLAKQRSVCTWGKNK [FAN1] | 2.31 ± 0.21 | 2.25 ± 0.16 | – | –
TWYLKTIDICHDHFGWYLGWGDCV [DHCR7] | 3.01 ± 0.34 | 3.1 ± 0.53 | – | –
IIDCGDIVWSLAFGSSVPEKQSRC [WSB1] | 2.12 ± 0.24 | 2.35 ± 0.28 | – | –
PCVAESPTVHVEVHQRGSSTAKKE [TRIP13] | 5.42 ± 0.39 | 5.35 ± 0.087 | – | –
VQSLQLSPRTRGSWSQPQPLKAPC [RASAL3] | 3.54 ± 0.41 | 3.68 ± 0.098 | – | –
GVPVQPVLIRYPNSLDTTSWAWRG [LPCAT4] | 2.28 ± 0.26 | 2.34 ± 0.31 | – | –
ASLGREESRAPSPLLHKDSASLEV [CBY2] | 4.79 ± 0.31 | 4.85 ± 0.19 | – | –
KTPYDTSRRQEKSAGDADPENGEI [ELOA2] | 5.3 ± 0.22 | 5.51 ± 0.17 | – | –
VVEKLNLFLDLLQSYKDLCERHEK [SNX8] | 2.19 ± 0.32 | 2.23 ± 0.25 | – | –
YLTVKVWDLNMENRPIETYQVHDY [PPP2R2B] | 2.25 ± 0.032 | 2.31 ± 0.2 | – | –
RPQSAQSSFPPSPGPSPDVQLATL [AUP1] | 4.34 ± 0.44 | 4.34 ± 0.47 | – | –
YAKKESDLNGAQIKLREYEAALNS [LMNB1] | 4.07 ± 0.2 | 4.07 ± 0.3 | – | –
PKPEPPQLVLAYDYSREVNTTEEL [FEM1A] | 5.03 ± 0.19 | 4.94 ± 0.31 | – | –
RRKPDPPKDENERSTCNVVQDEFL [DLC1] | 5.27 ± 0.1 | 5.33 ± 0.13 | – | –
ELFRIGGKSPDTNYLFMGDYVDRG [PPP2CA] | 2.49 ± 0.39 | 2.48 ± 0.11 | – | –

Sequence | protein stability index [1] | protein stability index [2] | protein stability index [3] | protein stability index [4]
YRALLSGSNPPYLPFRDASFGNCT [CDC14A] | 2.44 ± 0.091 | 2.49 ± 0.17 | – | –
YARYSLKSIDPVLMAPTCVFLASK [CCNC] | 2.16 ± 0.65 | 2 ± 0.3 | – | –
AACSSKRSPIIDVKNDRDRVGHKS [SERPINB5] | 4.85 ± 0.35 | 4.77 ± 0.11 | – | –
VFNAARDGKLRLLTKLLASKSKEE [FEM1C] | 2.48 ± 0.21 | 2.75 ± 0.3 | – | –
SQMFPSSKARTKSLLGDDVFSTMA [FBF1] | 2.89 ± 0.26 | 2.97 ± 0.21 | – | –
KTPEEAYRALLSGSNPPYLPFRDA [CDC14A] | 3.27 ± 0.3 | 3.31 ± 0.25 | – | –
SENKIVGIGYNGMPNGCSDDVLPW [DCTD] | 3.46 ± 0.35 | 3.56 ± 0.15 | – | –
RMLFWACSTNKPEGYRVSQALREN [FAF2] | 2.27 ± 0.16 | 2.46 ± 0.18 | – | –
QLKWASWELHSLRHCDDDGRTENG [ZNF24] | 3.83 ± 0.31 | 4.04 ± 0.21 | – | –
LHAWQINWPARQRGTHAVVGVATA [SPSB4] | 2.39 ± 0.25 | 2.31 ± 0.21 | – | –
VRENVPRVLNSAKEKSSTVPIPTV [SOAT1] | 4.161 ± 0.036 | 4.16 ± 0.14 | – | –
AQNAVRLHYGLPVVVKLLHPPSHW [CTNNB1] | 2.32 ± 0.23 | 2.23 ± 0.048 | – | –
NGHDCWSLISLSNNTGKNLELKFV [TENT5D] | 2.51 ± 0.49 | 2.61 ± 1 | – | –
AVPKRLLEIVGREGVSLTAVLTTH [HAGHL] | 2.5 ± 0.39 | 2.2 ± 0.6 | – | –
LSEVLAQPQGALAPPNCESDSKTG [DNAAF3] | 5.37 ± 0.14 | 5.52 ± 0.096 | – | –
KNLQQTTNTTSTQMTNIGVYVSNM [IQUB] | 3.25 ± 0.29 | 3.17 ± 0.22 | – | –
CFKAAFLDFKDLLESEDWEEDNWD [TEX19] | 2.95 ± 0.2 | 3.24 ± 0.36 | – | –
STEDMERALSEYLAVFARCLAGCE [P3H4] | 3.59 ± 0.2 | 3.37 ± 0.32 | – | –
HRDLKPENLLLASKLKGAAVKLAD [CAMK2A] | 3.67 ± 0.22 | 3.62 ± 0.091 | – | –
FGVAVVITNQVVAQVDGAAMFAAD [RAD51] | 3.26 ± 0.59 | 2.96 ± 0.62 | – | –
